Measurements: publication PMC4073121

Legend:
[1] = biological target: bfloGFPa1, green fluorescent protein of Amphioxus (Branchiostoma floridae) (Branchiostoma floridae); assay: SEC; size exclusion chromatography of the purified protein (Fig. S1); column and buffer not told
[2] = biological target: bfloGFPc1, green fluorescent protein of Amphioxus (Branchiostoma floridae) (Branchiostoma floridae); assay: as above

Substance	stoichiometry N [1]	stoichiometry N [2]
bfloGFPa1, green fluorescent protein of Amphioxus (Branchiostoma floridae) (natural protein)	2	
bfloGFPc1, green fluorescent protein of Amphioxus (Branchiostoma floridae) (natural protein)		2
